Laboratory results reported in PMC7430634, “Inactivation of the dimeric RappLS20 anti-repressor of the conjugation operon is mediated by peptide-induced tetramerization” (Nucleic Acids Research, 2020).
One block for each molecule: values may come before it.

How the values were obtained:
PlcR = conditions: SAXS, 2QFC, ref Declerck et al., 2007 (Suppl. ref 7); cited from earlier work
[1] = target: PhrF* peptide (Bacillus subtilis) (UniProt P71001); conditions: cited from earlier work
[2] = target: Rap_(pLS20) (Bacillus subtilis plasmid pLS20); assay: AUC; sedimentation equilibrium, apo Rap_(pLS20) at 4.5 to 25 μM; same conditions as the SV experiments; 7000 to 10 000 rpm
[3] = target: Rap_(pLS20) (Bacillus subtilis plasmid pLS20); assay: AUC; sedimentation equilibrium, Rap_(pLS20) (0–15 μM) with Phr*_(pLS20) at 1:3 stoichiometry (Rap:Phr*); same conditions as the SV experiments
[4] = target: Rap_(pLS20) (Bacillus subtilis plasmid pLS20); assay: SAXS; apo Rap_(pLS20) at 0.5 to 5 mg/ml (11.3–113 μM); 15 mM HEPES pH 7.5, 150 mM NaCl, 1 mM DTT; 293 K; volume fractions of dimer and foot-2-foot tetramer by OLIGOMER
[5] = target: Rap_(pLS20) (Bacillus subtilis plasmid pLS20); assay: AUC; sedimentation velocity, apo Rap_(pLS20) at 4.5 and 25 μM; 20 mM Tris, 250 mM NaCl, 10 mM MgCl2, 1 mM EDTA, 0.1 mM β-mercaptoethanol, 1% glycerol, pH 7.4; 48 000 rpm
[6] = target: Rap_(pLS20) (Bacillus subtilis plasmid pLS20); assay: AUC; sedimentation velocity, 4.5 μM Rap_(pLS20) with Phr*_(pLS20) at 4.5 μM or 15 μM; 20 mM Tris, 250 mM NaCl, 10 mM MgCl2, 1 mM EDTA, 0.1 mM β-mercaptoethanol, 1% glycerol, pH 7.4
[7] = target: Rap_(pLS20) (Bacillus subtilis plasmid pLS20); assay: SAXS; Rap_(pLS20) at 0.5 to 5 mg/ml with 5-fold molar Phr*_(pLS20); 15 mM HEPES pH 7.5, 150 mM NaCl, 1 mM DTT; 293 K; volume fractions of dimer and foot-2-foot tetramer by OLIGOMER
[8] = target: Rap_(pLS20) (Bacillus subtilis plasmid pLS20); assay: SEC; Superdex 200 increase 5/150 GL, 500 mM NaCl, 20 mM TRIS pH 8, 0.2 ml/min; proteins alone (1 mg/ml) and mixtures at 1:2, 1:4, 1:1 and 2:1 (Rco:Rap) incubated 30 min on ice; total protein 0.75–1.25 mg/ml; Phr* at 5:1 over Rap where added
[9] = target: Rco_(pLS20) (Bacillus subtilis plasmid pLS20); assay: as above
NprR = NprR and its cognate peptide NprX; cited from earlier work
[10] = target: Rap_(pLS20) (Bacillus subtilis plasmid pLS20); assay: fluorescence polarisation; equilibrium competition: native Phr*_(pLS20) 0.6–1250 μM against 10 μM Rap_(pLS20) and 50 nM 6-FAM-Phr*_(pLS20); 20 mM Tris pH 7.5, 150 mM NaCl, 1 mM DTT, 0.01% Triton X-100; 25°C

Molecule: LPFEF [PapR]
- oligomerization state of PlcR with peptide (PlcR): tetramers

Molecule: RapF (from UniProt P71002)
- Kd [1]: 3.1 µM

- stoichiometry N [2]: 2
- stoichiometry N [3]: 4
- dimer fraction at 0.5 mg/ml (11.3 μM) [4]: 0.78
- dimer fraction at 5 mg/ml (0.11 mM) [4]: 0.48
- tetramer fraction at 0.5 mg/ml (11.3 μM) [4]: 0.22
- tetramer fraction at 5 mg/ml (0.11 mM) [4]: 0.52
- percent as a single species (dimer) at 4.5 μM [5]: > 96%
- percent tetramers at 4.5 μM [5]: 1.1%
- percent tetramers at 25 μM [5]: 3.6%
- stoichiometry N [5]: 2
- stoichiometry N [6]: 4
- percent tetramers above 2.5 mg/ml (57.7 μM) with Phr* (pLS20) [7]: 100%
- percent tetramers at 0.5 mg/ml (11.3 μM) with Phr* (pLS20) [7]: 75%
- stoichiometry N [8]: 2
Molecule: Rap_(pLS20) (natural protein)

- stoichiometry N [9]: 4
Molecule: Rco_(pLS20) (natural protein)

Molecule: SSKPDIVG [NprX, cognate peptide of NprR, eight amino acids (SSKPDIVG)]
- Kd (NprR): 0.03 µM

- IC50 [10]: 26.7 µM
- Kd [10]: 7.42 µM
Molecule: QKGMY [Phr*_(pLS20) peptide (QKGMY)]
